Tests used:
[1] = target: T1, 3-Hydroxypropionyl-CoA dehydratase (Ms3HPCD; 3HPCD; 3-HPCD) (Metallosphaera sedula, UniProt A4YI89); assay: X-ray crystal structure, […] Å; details: co-purified, CoA not added during expression or purification; substrate binding site between two monomers; crystals at pH 6.2, 20 °C
T1 construct: gene Msed_2001; Met1-Lys256, C-terminal 6xHis tag (pET30a), expressed in E. coli BL21(DE3)-T1R; hexamer (dimer of trimers)

[2] = target: 3-Hydroxypropionyl-CoA dehydratase from Metallosphaera sedula (Metallosphaera sedula); assay: SEC; analytical, Superdex increase 200 10/300 GL, 40 mM Tris-HCl pH 8.0, 150 mM NaCl; 1 mL of 1 mg/mL protein; calibrated with ferritin, conalbumin, carbonic anhydrase, ribonuclease A
[3] = target: 3-Hydroxypropionyl-CoA dehydratase from Metallosphaera sedula (Metallosphaera sedula); assay: crystal structure; Ms3HPCD in complex with CoA, 1.8 Å, space group P21, six monomers in the asymmetric unit; crystals from 10% PEG 8000, 0.1 M sodium-potassium phosphate pH 6.2, 0.2 M NaCl, 10 mM EDTA, 20 °C

T1 sequence (A4YI89 whole entry): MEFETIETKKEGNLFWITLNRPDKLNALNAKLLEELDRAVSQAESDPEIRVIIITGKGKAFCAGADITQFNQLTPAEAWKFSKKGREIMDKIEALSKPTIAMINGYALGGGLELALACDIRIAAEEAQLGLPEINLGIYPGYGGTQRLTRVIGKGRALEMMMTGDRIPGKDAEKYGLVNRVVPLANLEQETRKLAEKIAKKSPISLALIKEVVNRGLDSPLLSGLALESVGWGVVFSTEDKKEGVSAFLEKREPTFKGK

| Compound | X-ray crystal structure, 1.8 Å [1] | stoichiometry N [2] | stoichiometry N [3] |
| --- | --- | --- | --- |
| CC(C)(COP(=O)(O)OP(=O)(O)OC[C@H]1O[C@@H](n2cnc3c(N)ncnc32)[C@H](O)[C@@H]1OP(=O)(O)O)[C@@H](O)C(=O)NCCC(=O)NCCS [CoA] | In our current structure, the CoA molecule is tightly bound at the substrate binding site |  |  |
| 3-Hydroxypropionyl-CoA dehydratase from Metallosphaera sedula (enzyme) |  | 6 | 6 |
